target: T1, recombinant ANX7 (human annexin VII) (UniProt P20073)
T1 sequence: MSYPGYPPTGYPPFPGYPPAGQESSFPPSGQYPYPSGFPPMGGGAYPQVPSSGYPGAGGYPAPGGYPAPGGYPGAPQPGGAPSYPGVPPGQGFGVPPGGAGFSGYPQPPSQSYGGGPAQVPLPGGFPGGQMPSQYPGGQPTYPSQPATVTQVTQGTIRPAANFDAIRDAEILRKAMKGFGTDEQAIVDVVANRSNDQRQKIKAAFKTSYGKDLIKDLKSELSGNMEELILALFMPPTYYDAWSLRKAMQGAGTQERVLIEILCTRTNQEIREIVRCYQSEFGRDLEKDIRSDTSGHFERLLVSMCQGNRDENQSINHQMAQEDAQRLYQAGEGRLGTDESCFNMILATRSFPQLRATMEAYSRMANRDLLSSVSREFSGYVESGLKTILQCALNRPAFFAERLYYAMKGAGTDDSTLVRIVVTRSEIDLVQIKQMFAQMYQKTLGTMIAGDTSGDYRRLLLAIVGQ

| Substance | in vitro phosphorylation of recombinant ANX7 | molar ratio of ^32[P]/ANX7 protein after a 30-minute incubation |
| --- | --- | --- |
| Ca^2+/calmodulin Kinase II | no activity was detected when recombinant ANX7 was exposed to casein kinase 1, casein kinase II, or Ca^2+/calmodulin kinase II | – |
| epidermal growth factor receptor kinase | – | only five were active ... EGFR kinase (molar ratio not determined) |
| cAMP-dependent protein Kinase | – | PKA (molar ratio=1.0) |
| Casein kinase I | no activity was detected when recombinant ANX7 was exposed to casein kinase 1, casein kinase II, or Ca^2+/calmodulin kinase II | – |
| cGMP-dependent protein kinase | – | PKG (molar ratio=1.0) |
| casein Kinase II | no activity was detected when recombinant ANX7 was exposed to casein kinase 1, casein kinase II, or Ca^2+/calmodulin kinase II | – |
| protein kinase C | – | PKC (molar ratio=2.0) |
| tyrosine kinase p60^src | – | p60^src (molar ratio=1.0) |

Reference: patent publication US20050123978
